Experimental data taken from patent publication US20070014799A1.

How the values were obtained:
[1] = target: monoclonal antibody ZAL2-103a producible from the hybridoma ZAL2-103 (FERM BP-8431); test: competitive EIA: unlabeled human ZAQL-2 against HRP-labeled human ZAQL-2 on ZAL2-103a (50 ng/ml) captured on anti-mouse immunoglobulin plate
[2] = target: monoclonal antibody ZAL2-106a producible from the hybridoma ZAL2-106 (FERM BP-8432); test: competitive EIA: unlabeled human ZAQL-2 against HRP-labeled human ZAQL-2 on ZAL2-106a (50 ng/ml) captured on anti-mouse immunoglobulin plate

IC50 [1]: 0.8 nM
IC50 [2]: 3 nM
B1: Human ZAQL-2 (human Bv8 maturation peptide) (ligand)
chain: AVITGACDKDSQCGGGMCCAVSIWVKSIRICTPMGKLGDSCHPLTRKVPFFGRRMHHTCPCLPGLACLRTSFNRFICLAQK
